Experiment [1] has as its target T1, At1g65860 (Arabidopsis thaliana, UniProt Q9SS04).
T1 construct: (AT1G65860) mRNA, complete cds; made in house; host or cells: E. coli TOP10, arabinose-induced pBAD-TOPO; crude spheroplast preparation, 50 ug total protein
T1 sequence (Q9SS04 1-459): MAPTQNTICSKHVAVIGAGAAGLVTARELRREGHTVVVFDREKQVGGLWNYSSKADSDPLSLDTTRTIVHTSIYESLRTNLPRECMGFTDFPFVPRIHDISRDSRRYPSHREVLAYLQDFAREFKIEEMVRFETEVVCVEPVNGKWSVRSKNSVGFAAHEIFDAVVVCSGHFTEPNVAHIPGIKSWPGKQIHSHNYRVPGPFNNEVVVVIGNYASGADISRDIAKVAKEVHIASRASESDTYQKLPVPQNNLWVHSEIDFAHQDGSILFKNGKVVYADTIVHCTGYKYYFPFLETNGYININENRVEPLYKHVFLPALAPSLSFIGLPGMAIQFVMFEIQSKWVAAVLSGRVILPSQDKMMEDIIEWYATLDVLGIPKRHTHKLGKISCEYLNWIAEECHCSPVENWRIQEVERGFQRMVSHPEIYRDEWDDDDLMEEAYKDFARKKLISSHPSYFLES
The experiment is described as follows: Enzymatic activity of heterologously expressed At1g65860 in E. coli spheroplasts. The class given is biochemical. Conditions: 1 hour at 30° C.; for oxygenation on the sulfur: tested as substrates at 0.1 mM, 1 mM and 10 mM. On the procedure:
FIG. 3—Enzymatic activity of heterologously expressed At1g65860 in E. coli spheroplasts using the arabinose inducible pBad TOPO® TA Expression system (Invitrogen). 50 μg total E. coli protein were used for each assay and allowed to proceed for 1 hour at 30° C. 4-methylsulfinylbutyl glucosinolate and desulfo-methylsulfinylbutyl glucosinolate production were quantified by HPLC (monitored at 229 nm). Compound identities were confirmed by comparison of both retention times, UV light absorption profiles and mass by LC/MS with those of authentic standards.
At1g65860 pBAD-TOPO constructs and a vector control (empty pBAD-TOPO) were transformed into the E. coli strain TOP10 (Invitrogen). Single colonies were grown overnight in Luria broth (LB) with 100 μg/ml ampicillin. One milliliter of the overnight culture was used to inoculate 100 ml of LB medium supplemented with 100 μg/ml ampicillin and the culture was grown at 37° C., 250 rpm to OD600=0.5, at which time arabinose (final conc. 0.02%) was added. The culture was grown at 28° C., 250 rpm for 16 h.
Following arabinose induction, spheroplasts of E. coli cells were prepared. The culture was chilled on ice, pelleted at 2500 g for 10 min, followed by resuspension by sequential addition of 8.3 ml 200 mM Tris/HCl, pH 7.6, 1.42 g sucrose, 16.7 μL […], 41.7 μL 0.1M phenylmethylsulfonyl fluoride, 33.3 μL lysozyme (50 mg/ml) and finally 8.31 mL ice-cold water with slow stirring. After 30 min incubation at 4° C. with slow stirring, 166 μL 1M Mg(OAc)2 was added and membranes were pelleted at 3000 g for 10 min at 4° C. Pellet was resuspended in 1800 μL 10 mM Tris/HCl pH 7.6/14 mM Mg(OAc)2/60 mM KOAc. The suspension was homogenized in a Potter-Elvehjem followed by the addition of 5 μL RNAse (10 mg/ml) and 5 μL DNAse (5 mg/ml) and slowly stirred for 30 min at 4° C. 235 μL 87% glycerol was added and the spheroplasts were stored at −80° C. for several weeks without loss of activity.
The 100 ul assay solution contained substrate and spheroplasts corresponding to 50 ug total E. coli protein in a 0.1 M Tricine at pH 7.9, 0.25 mM NADPH buffer. The reaction was allowed to proceed for 1 hour at 30° C. and terminated by the addition of 100 μL methanol and centrifuged at 5000 g for 2 min. The supernatant was moved to new tubes followed by lyophilization to dryness and finally redissolved in 50 μL water.
4-methylthiobutyl glucosinolate and desulfo 4-methylthiobutyl glucosinolate were used as substrates with final concentrations in the assay as given in FIG. 3. 4-methylthiobutyl oxime, dihomomethionine, methionine were tested as substrates at 0.1 mM, 1 mM and 10 mM final concentrations. […]

Experiment [2] is described as follows: Activity of FMOs of the invention in E. coli or in seeds using a variety of substrates. The format is biochemical, Arabidopsis thaliana. The note with it: for S-oxygenation activity: desulfo and intact glucosinolates; for substrate specificity: methylthio glucosinolates in Arabidopsis. From the text: FIG. 11—Heterologous expression of At1g62560 in E. coli using 4MTB as substrate, with an empty vector as control.
FIG. 13—Heterologous expression of At1g62540 in E. coli using 4MTB as substrate, with an empty vector as control.
FIG. 15—Heterologous expression of At1g12140 in E. coli using desulfo-glucosinolates from glucosinolates from Arabidopsis Col-0 seeds as substrate mix.
FIG. 17—Heterologous expression of At1g62570 in E. coli using desulfo-glucosinolates from glucosinolates from Arabidopsis Col-0 seeds as substrate mix, with an empty vector as control.
FIGS. 11-18 show the activity of At1g62560, At1g65860, At1g62540, At1g12140 and At1g62570 in E. coli or in seeds using a variety of substrates.

As for `CSCCCC/C=N\O` [4-methylthiobutyl oxime], in experiment [1], the “oxygenation on the sulfur” value was “No oxygenation on the sulfur”.

`CSCCCCC(N)C(=O)O` (stereo not shown) [dihomomethionine]: the “oxygenation on the sulfur” value in experiment [1] is on record as “No oxygenation on the sulfur”.

Regarding `CSCC[C@H](N)C(=O)O` [methionine], the “oxygenation on the sulfur” value in experiment [1] is given as “No oxygenation on the sulfur”. With `CSCCCC/C(=N/OS(=O)(=O)O)S[C@@H]1O[C@H](CO)[C@@H](O)[C@H](O)[C@H]1O` [4MTB, 4-methylthiobutyl glucosinolate], in experiment [1] (50 μg total E. coli protein, HPLC 229 nm), the “production of 4MSB from 4MTB” value is reported as “production of 4MSB from 4MTB”.

B1: At1g12140: flavin-containing monooxygenase (FMO) from A. thaliana, SEQ ID NO 10 (protein, listed as Arabidopsis thaliana)
chain: MAPARTRVNSLNVAVIGAGAAGLVAARELRRENHTVVVFERDSKVGGLWVYTPNSEPDPLSLDPNRTIVHSSVYDSLRTNLPRECMGYRDFPFVPRPEDDESRDSRRYPSHREVLAYLEDFAREFKLVEMVRFKTEVVLVEPEDKKWRVQSKNSDGISKDEIFDAVVVCNGHYTEPRVAHVPGIDSWPGKQIHSHNYRVPDQFKDQVVVVIGNFASGADISRDITGVAKEVHIASRSNPSKTYSKLPGSNNLWLHSMIESVHEDGTIVFQNGKVVQADTIVHCTGYKYHFPFLNTNGYITVEDNCVGPLYEHVFPPALAPGLSFIGLPWMTLQFFMFELQSKWVAAALSGRVTLPSEEKMMEDVTAYYAKREAFGQPKRYTHRLGGGQVDYLNWIAEQIGAPPGEQWRYQEINGGYYRLATQSDTFRDKWDDDHLIVEAYEDFLRQKLISSLPSQLLES
In the case of B1, in experiment [2], the S-oxygenation activity entry is listed as “S-oxygenation activity” and the substrate specificity result was “mainly converts long-chain (especially octyl)methylthioalkyl-into methylsulfinyl glucosinolates”.

B2: At1g62570: flavin-containing monooxygenase (FMO) from A. thaliana, SEQ ID NO 6 (protein, listed as Arabidopsis thaliana)
chain: MAPAPSPINSQHVAVIGAGAAGLVAARELRREGHTVVVLDREKQVGGLWVYTPETESDELGLDPTRPIVHSSVYKSLRTNLPRECMGYKDFPFVPRGDDPSRDSRRYPSHREVLAYLQDFATEFNIEEMIRFETEVLRVEPVNGKWRVQSKTGGGFSNDEIYDAVVMCCGHFAEPNIAQIPGIESWPGRQTHSHSYRVPDPFKDEVVVVIGNFASGADISRDISKVAKEVHIASRASKSNTFEKRPVPNNNLWMHSEIDTAHEDGTIVFKNGKVVHADTIVHCTGYKYYFPFLETNNYMRVDDNRVEPLYKHIFPPALAPGLSFIGLPAMGLQFYMFEVQSKWVAAVLSGRVTLPSVDEMMDDLKLSYETQEALGIPKRYTHKLGKSQCEYLDWIADLCGFPHVEHWRDQEVTRGYQRLGNQPETFRDEWDDDDLMEEAYEDFARLNLINFHPSRFLESGR
B2: in experiment [2], the S-oxygenation activity entry is reported as “S-oxygenation activity” and the substrate specificity result was “broad specificity towards all methylthio (MT) glucosinolates”.

B3: At1g62540: flavin-containing monooxygenase (FMO) from A. thaliana, SEQ ID NO 8 (protein, listed as Arabidopsis thaliana)
chain: MAPAQNPISSQHVVVIGAGAAGLVAARELSREGHTVVVLEREKEVGGLWIYSPKAESDPLSLDPTRSIVHSSVYESLRTNLPRECMGFTDFPFVPRFDDESRDSRRYPSHMEVLAYLQDFAREFNLEEMVRFEIEVVRVEPVNGKWRVWSKTSGGVSHDEIFDAVVVCSGHYTEPNVAHIPGIKSWPGKQIHSHNYRVPGPFENEVVVVIGNFASGADISRDIAKVAKEVHIASRASEFDTYEKLPVPRNNLWIHSEIDTAYEDGSIVFKNGKVVYADSIVYCTGYKYRFTFLETNGYMNIDENRVEHLYKHVFPPALSPGLSFVGLPSMGIQFVMFEIQSKWVAAVLSRRVTLPTEDKMMEDISAWYASLDAVGIPKRYTHKLGKIQSEYLNWVAEECGCPLVEHWRNQQIVRGYQRLVSHPETYRDEWDDNDLMEEAYEDFARKKLISFHPSHIL
For the molecule B3, in experiment [2], the S-oxygenation activity entry was “S-oxygenation activity” and the substrate specificity entry is listed as “broad specificity towards all methylthio (MT) glucosinolates”.

Source of the values: patent publication US20100011462A1, “FLAVIN MONOOXYGENASES AND TRANSCRIPTION FACTORS INVOLVED IN GLUCOSINOLATE BIOSYNTHESIS” (University of Copenhagen, priority 2006, published 2010).
